Assay [1] addresses N1 neuraminidase from A/California/07/2009 (Influenza A virus A/California/07/2009 (H1N1)). Nature of the assay: flow cytometry on NA-expressing cells. For orientation: Flow cytometry measures light scatter and fluorescence of single cells or particles in a stream.
Assay [2] has as its target N3_A_Canada_rv504_2004 (influenza A virus). Nature of the assay: flow cytometry on NA-expressing cells.
The target in assay [3] is N8_A_harbor_seal_New_hampshire_179629_2011 (influenza A virus). Nature of the assay: flow cytometry on NA-expressing cells.
Assay [4] addresses N2_NA_A_South_Australia_34_2019 (influenza A virus). Nature of the assay: flow cytometry on NA-expressing cells.
For assay [5], the target named is N2_A_Leningrad_134_17_57 (influenza A virus). Nature of the assay: flow cytometry on NA-expressing cells.
Assay [6] addresses B/Malaysia/2506/2004(Victoria) (influenza B virus). Nature of the assay: flow cytometry on NA-expressing cells.
For assay [7], the target named is N9 neuraminidase from A/Anhui/1/2013 (Influenza A virus A/Anhui/1/2013 (H7N9)). Nature of the assay: flow cytometry on NA-expressing cells.
Assay [8] has as its target N1_NA_A_swine_Hebei_0116_2017 (influenza A virus). Nature of the assay: flow cytometry on NA-expressing cells.
The target in assay [9] is N2 neuraminidase from A/Washington/01/2007 (Influenza A virus A/Washington/01/2007). Nature of the assay: flow cytometry on NA-expressing cells.
The target in assay [10] is N6_A_Swine_Ontario_01911_1_99 (influenza A virus). Nature of the assay: flow cytometry on NA-expressing cells.
Assay [11] has as its target B/Lee/10/1940(Ancestral) (influenza B virus). Nature of the assay: flow cytometry on NA-expressing cells.
In assay [12] the target is N1 neuraminidase from A/Swine/Jiangsu/J004/2018 (Influenza A virus A/Swine/Jiangsu/J004/2018 (H1N1)). Nature of the assay: flow cytometry on NA-expressing cells.
Assay [13] has as its target N1_A_Stockholm_18_2007 (influenza A virus). Nature of the assay: flow cytometry on NA-expressing cells.
Assay [14] addresses N7_A_Netherlands_078_03 (influenza A virus). Nature of the assay: flow cytometry on NA-expressing cells.
Assay [15] addresses B/Yamanashi/166/1998(Yamagata) (influenza B virus). Nature of the assay: flow cytometry on NA-expressing cells.
Assay [16] addresses N1 neuraminidase from A/Swine/Jiangsu/J004/2018 (Influenza A virus A/Swine/Jiangsu/J004/2018 (H1N1)).
Assay [17] concerns the target N2 A/South Australia/34/2019 (245Gly+) (Influenza A virus A/South Australia/34/2019).
Assay [18] deals with N1 neuraminidase from A/Swine/Jiangsu/J004/2018 (Influenza A virus A/Swine/Jiangsu/J004/2018 (H1N1)). This is another data set of the same source.
Assay [19] has as its target N2 A/South Australia/34/2019 (245Gly+) (Influenza A virus A/South Australia/34/2019). The source holds these as a separate data set.
For another assay, the system named is H1N1 A/Puerto Rico/8/34. The arrangement: species or system influenza A virus. The settings on record: in vivo, po, 10 mg/kg.
Assay [20] concerns B/Victoria/504/2000 (Yamagata). The arrangement: species or system influenza B virus. To be noted: in vivo, po, 10 mg/kg.
Assay [21] relates to B/Brisbane/60/2008 (Victoria). The arrangement: species or system influenza B virus. To be noted: in vivo, po, 10 mg/kg.
Another assay deals with H3N2 A/Hong Kong/8/68. The arrangement: species or system influenza A virus. The settings on record: in vivo, po, 10 mg/kg.

The record followed here is patent publication US20240092876A1 (priority 2020, published 2024).

“And” between values parts separate entries of the source, which are not always exact repeats. Identical values can stand only once. Like-named read-outs stand apart in the source and are kept apart here.

For orientation: Kd means the free concentration of one partner at which half of the binding sites on the other are occupied at equilibrium, for simple one-to-one binding. A low value points to higher affinity. Usually koff stands for a measure of how fast the partners let go of each other. A higher koff goes with a short-lived complex. The kon is a measure of how fast the partners come together. Read a low kon as slower complex formation.

In the assay with N2, 1G01 (antibody) registered an equilibrium dissociation constant (Kd) below 1 pM, a koff below 1e-07 s⁻¹ and a kon of 40200 M⁻¹ s⁻¹.
With FNI3 (antibody), the MFI normalized vs wt in assay [1], in assay [2], in assay [3], in assay [4], in assay [5] and in [6] was 1 each time. Further, the MFI normalized vs wt in assay [7], in assay [8], in assay [9], in assay [10], in assay [11] and in assay [12] was 1 in each case. For the same compound, the MFI normalized vs wt in [13], in [14] and in [15] was 1 throughout. For the same compound, the Alexa 647-A+ (percent of cells in the positive gate) in [16] was 83.9% and 85.2%; in assay [17] it was 49.1% and 48.4%; in assay [18], 83.7% and 79.6%; in [19] it was 59.2% and 54%. Also, in the assay with N2, the Kd was below 1 pM. In the assay with N2, this compound displayed a dissociation rate constant (koff) below 1e-07 s⁻¹. Besides, the kon in the assay with N2 came to 11500 M⁻¹ s⁻¹.
For `CCOC(=O)C1=C[C@@H](OC(CC)CC)[C@H](NC(C)=O)[C@@H](N)C1` [OSE, oseltamivir], the “reduction in viral titres in comparison to the vehicle” value in the assay on H1N1 A/Puerto Rico/8/34 is recorded as 1 log; in assay [20] it was 1 log; in assay [21], “exception”; in the assay on H3N2 A/Hong Kong/8/68, 1 log.
As to FNI9 (antibody), the Alexa 647-A+ (percent of cells in the positive gate) in assay [16] was 84% and 83.5%; in assay [17] it was 68.8% and 57%; in assay [18], 82.1% and 78%; in [19], 66.1% and 71.3%. The compound further had an equilibrium dissociation constant (Kd) with N2 below 1 pM.
